Assay results reported in patent publication US20100196403A1, “ANTIBODY CONJUGATES FOR CIRCUMVENTING MULTI-DRUG RESISTANCE” (priority 2007, published 2010).

Key:
HU-2 cells = assay: Cell viability of HU-2 cells with toxic drugs (Trypan blue exclusion); assay type: cell-based, mouse; conditions: 2 μg/ml Adriamycin or 1 μg/ml colchicine, FIG. 6A
Method: T-25 cells (Hochman et al, 1984), derived from S49 mouse lymphoma, were transduced with a retrovirus containing the human MDR1 cDNA, as previously described (Galski et al. 1995). The resultant cells (HU-2) are cross-resistant to colchicine, doxorubicin, vinblastine and actinomycin D, and their resistance to colchicine is reversed by verapamil. T-cell lymphoma derived cell lines were grown in Dulbecco's modified eagle medium (DMEM) supplemented with 10% heat-inactivated horse serum, at 37° C. in a humidified atmosphere containing 5% CO2.
To measure the sensitivity of HU-2 cells to toxic drugs, 1×10^5 cells per well were incubated with 10 μg of the conjugate for 4 hrs. 2 μg/ml of Adriamycin or 1 μg/ml of colchicine was then added and the cells incubated for a further 96 hrs. Stocks were prepared in DMSO. The maximal final concentration of DMSO in the assays was 0.5% (v/v). After 96 h, the cells were checked by light microscopy and viable cells were counted by Trypan blue exclusion.

ABCB1 transporter = target: T1, ABCB1 transporter (Cricetulus griseus, UniProt P21448); assay type: cell-based, Chinese hamster
T1 construct: In drug resistant cells, calcein-AM is extruded by the ABCB1 transporter; endogenous in cells; host or cells: CHO cell clone CH(R)B30 (colchicine-resistant)
Method: Cells were grown in alpha-MEM medium supplemented with 10% Fetal Calf Serum (FCS), penicillin 50 U/ml, streptomycin 50 μg/ml, and ceftazidim 50 μg/ml. For propagation of the clone, colchicine was added to this medium to a final concentration of 20 μg/ml.
Cells were diluted in alpha MEM to about 1.5×10^6 cells/ml. Volumes of 1 ml were distributed to 2 ml Eppendorf tubes. […] The capped tubes were positioned with their longitudinal axes inclined to 45° on a roller platform and were rotated in the incubator. The cells were incubated with conjugates, proteins, or peptides, respectively, at various concentrations and for various times. […] Calcein-AM was added to a final concentration of 1 μM or 2 μM at least 30 min before the end of incubation. Calcein-AM, a substrate of ABCB1, is a hydrophobic non-fluorescent substance that easily enters cells. Once in the cytoplasm, calcein-AM is hydrolysed, and the ensuing fluorescent calcein is retained within the cells. In drug resistant cells, calcein-AM is extruded by the ABCB1 transporter. […] All vials were stopped by addition of ice-cold medium and then put on ice for subsequent flow cytometry (beginning about 1 h after the end of incubation). […] 100,000 cells, in a few experiments 50,000 cells per vial were counted. […] The median channel xM of the y distribution and yM, the number of cells in xM, were determined.

[1] = target: human MDR1 (P-gp) expressed in HU-2 mouse lymphoma cells (human) (UniProt P08183); assay: cell-based or functional assay
Chain of human MDR1 (P-gp) expressed in HU-2 mouse lymphoma cells (human) (P08183 whole entry): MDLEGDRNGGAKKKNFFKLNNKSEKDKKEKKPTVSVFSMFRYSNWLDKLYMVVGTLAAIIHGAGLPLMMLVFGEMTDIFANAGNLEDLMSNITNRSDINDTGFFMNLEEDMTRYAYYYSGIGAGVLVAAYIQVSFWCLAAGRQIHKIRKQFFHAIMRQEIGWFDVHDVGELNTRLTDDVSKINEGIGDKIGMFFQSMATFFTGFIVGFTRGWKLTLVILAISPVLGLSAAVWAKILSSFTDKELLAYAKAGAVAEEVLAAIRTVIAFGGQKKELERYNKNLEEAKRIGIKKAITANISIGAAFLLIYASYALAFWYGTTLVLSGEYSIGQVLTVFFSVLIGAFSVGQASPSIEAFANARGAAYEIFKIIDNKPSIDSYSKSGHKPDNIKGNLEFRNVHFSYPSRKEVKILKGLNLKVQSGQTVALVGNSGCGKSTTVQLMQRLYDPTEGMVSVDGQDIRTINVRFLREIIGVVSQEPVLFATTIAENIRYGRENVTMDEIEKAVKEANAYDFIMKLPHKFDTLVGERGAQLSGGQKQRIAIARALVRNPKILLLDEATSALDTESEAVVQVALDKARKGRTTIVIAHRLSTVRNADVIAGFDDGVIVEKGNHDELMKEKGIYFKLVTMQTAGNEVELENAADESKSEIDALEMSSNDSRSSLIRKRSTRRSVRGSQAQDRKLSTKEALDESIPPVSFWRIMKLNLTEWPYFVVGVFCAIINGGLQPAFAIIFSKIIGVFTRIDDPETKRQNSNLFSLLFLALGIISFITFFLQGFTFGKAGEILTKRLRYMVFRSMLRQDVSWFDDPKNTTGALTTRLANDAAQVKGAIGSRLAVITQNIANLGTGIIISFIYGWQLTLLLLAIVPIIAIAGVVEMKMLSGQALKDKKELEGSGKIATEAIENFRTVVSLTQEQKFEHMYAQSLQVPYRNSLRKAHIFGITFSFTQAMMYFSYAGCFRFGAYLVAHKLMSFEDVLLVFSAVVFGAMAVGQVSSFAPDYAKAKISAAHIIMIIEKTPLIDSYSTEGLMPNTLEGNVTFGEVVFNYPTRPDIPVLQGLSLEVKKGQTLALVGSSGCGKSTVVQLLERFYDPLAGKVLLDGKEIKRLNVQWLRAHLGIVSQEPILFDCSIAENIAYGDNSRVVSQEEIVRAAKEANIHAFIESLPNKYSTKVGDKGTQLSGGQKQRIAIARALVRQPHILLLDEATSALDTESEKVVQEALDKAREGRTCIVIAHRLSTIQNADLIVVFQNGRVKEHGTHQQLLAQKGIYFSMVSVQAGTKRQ

T1 sequence (P21448 whole entry): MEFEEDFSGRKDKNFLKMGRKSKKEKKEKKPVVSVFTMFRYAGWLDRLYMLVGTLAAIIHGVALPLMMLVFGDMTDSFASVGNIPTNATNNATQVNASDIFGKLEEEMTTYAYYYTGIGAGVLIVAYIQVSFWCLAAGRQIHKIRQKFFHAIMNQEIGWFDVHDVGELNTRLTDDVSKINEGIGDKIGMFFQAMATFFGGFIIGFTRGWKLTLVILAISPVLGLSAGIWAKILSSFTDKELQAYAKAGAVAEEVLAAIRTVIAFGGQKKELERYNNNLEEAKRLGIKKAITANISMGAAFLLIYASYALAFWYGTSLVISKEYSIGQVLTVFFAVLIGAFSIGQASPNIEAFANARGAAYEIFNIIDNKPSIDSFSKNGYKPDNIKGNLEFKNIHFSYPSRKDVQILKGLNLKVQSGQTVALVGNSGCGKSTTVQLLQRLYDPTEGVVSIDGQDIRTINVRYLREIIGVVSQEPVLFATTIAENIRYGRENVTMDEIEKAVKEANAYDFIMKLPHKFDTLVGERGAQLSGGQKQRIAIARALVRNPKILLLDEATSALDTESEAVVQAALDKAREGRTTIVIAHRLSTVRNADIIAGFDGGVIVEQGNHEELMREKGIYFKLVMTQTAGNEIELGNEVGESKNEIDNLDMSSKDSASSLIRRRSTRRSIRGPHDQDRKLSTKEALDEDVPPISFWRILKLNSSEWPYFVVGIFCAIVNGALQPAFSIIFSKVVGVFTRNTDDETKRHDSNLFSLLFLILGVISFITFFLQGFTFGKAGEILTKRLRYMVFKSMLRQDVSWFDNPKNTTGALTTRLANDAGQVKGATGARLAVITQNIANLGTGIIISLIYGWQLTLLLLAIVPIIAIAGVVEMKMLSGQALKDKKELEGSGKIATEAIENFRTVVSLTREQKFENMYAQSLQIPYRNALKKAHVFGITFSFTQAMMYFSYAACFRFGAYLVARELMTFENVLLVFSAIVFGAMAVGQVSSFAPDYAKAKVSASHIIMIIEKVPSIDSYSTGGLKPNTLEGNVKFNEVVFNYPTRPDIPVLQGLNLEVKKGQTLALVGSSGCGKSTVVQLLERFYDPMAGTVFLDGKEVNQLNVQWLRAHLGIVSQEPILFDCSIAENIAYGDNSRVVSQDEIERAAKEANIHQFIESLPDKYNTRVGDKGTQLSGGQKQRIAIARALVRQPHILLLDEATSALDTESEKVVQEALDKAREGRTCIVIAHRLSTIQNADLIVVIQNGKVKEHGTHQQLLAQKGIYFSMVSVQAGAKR

COc1cc2c(c(OC)c1OC)-c1ccc(OC)c(=O)cc1[C@@H](NC(C)=O)CC2 [colchicine]
viability of HU-2 cells with drug, no conjugate (HU-2 cells): remain viable

CFITKALGISYGRKKRRQRRRPPQGSQTHQVSLSKQ [(37-72)Tat]
shift in the flow cytometry histogram (ABCB1 transporter; 1 μM, 210 min, FIG. 4F): small | effect on MDR activity (summary of results) (ABCB1 transporter; colchicine-resistant CH(R)B30 cells): only a marginal effect

C219-S-S-(37-72)Tat conjugate (Mab C219 linked through PDPH and a disulfide bond to Cys 37 of HIV-1 (37-72)Tat) (antibody)
cell death of HU-2 cells with Adriamycin 2 µg/ml in the presence of 10 µg conjugate, Trypan blue count after 96 h, normalized to drug without conjugate [1]: 68% | cell death of HU-2 cells with colchicine 1 µg/ml in the presence of 10 µg conjugate, Trypan blue count after 96 h, normalized to drug without conjugate [1]: 91%

COc1cccc2c1C(=O)c1c(O)c3c(c(O)c1C2=O)C[C@@](O)(C(=O)CO)C[C@@H]3O[C@H]1C[C@H](N)[C@H](O)[C@H](C)O1 [adriamycin, doxorubicin]
viability of HU-2 cells with drug, no conjugate (HU-2 cells): remain viable
